Measurements from patent publication US20230407373A1 (priority 2020, published 2023).

B1: HNRNPA0 (protein, UniProt Q13151 1-305, looked up)
Heterogeneous nuclear …: MENSQLCKLFIGGLNVQTSESGLRGHFEAFGTLTDCVVVVNPQTKRSRCFGFVTYSNVEEADAAMAASPHAVDGNTVELKRAVSREDSARPGAHAKVKKLFVGGLKGDVAEGDLIEHFSQFGTVEKAEIIADKQSGKKRGFGFVYFQNHDAADKAAVVKFHPIQGHRVEVKKAVPKEDIYSGGGGGGSRSSRGGRGGRGRGGGRDQNGLSKGGGGGYNSYGGYGGGGGGGYNAYGGGGGGSSYGGSDYGNGFGGFGSYSQHQSSYGPMKSGGGGGGGGSSWGGRSNSGPYRGGYGGGGGYGGSSF
B2: HNRNPH1 (protein, UniProt P31943 1-449, looked up)
Heterogeneous nuclear …: MMLGTEGGEGFVVKVRGLPWSCSADEVQRFFSDCKIQNGAQGIRFIYTREGRPSGEAFVELESEDEVKLALKKDRETMGHRYVEVFKSNNVEMDWVLKHTGPNSPDTANDGFVRLRGLPFGCSKEEIVQFFSGLEIVPNGITLPVDFQGRSTGEAFVQFASQEIAEKALKKHKERIGHRYIEIFKSSRAEVRTHYDPPRKLMAMQRPGPYDRPGAGRGYNSIGRGAGFERMRRGAYGGGYGGYDDYNGYNDGYGFGSDRFGRDLNYCFSGMSDHRYGDGGSTFQSTTGHCVHMRGLPYRATENDIYNFFSPLNPVRVHIEIGPDGRVTGEADVEFATHEDAVAAMSKDKANMQHRYVELFLNSTAGASGGAYEHRYVELFLNSTAGASGGAYGSQMMGGMGLSNQSSYGGPASQQLSGGYGGGYGGQSSMSGYDQVLQENSSDFQSNIA
B3: RBM47: host protein, UniProt A0AV96 (protein, UniProt A0AV96 1-593, looked up)
RNA-binding protein 47: MTAEDSTAAMSSDSAAGSSAKVPEGVAGAPNEAALLALMERTGYSMVQENGQRKYGGPPPGWEGPHPQRGCEVFVGKIPRDVYEDELVPVFEAVGRIYELRLMMDFDGKNRGYAFVMYCHKHEAKRAVRELNNYEIRPGRLLGVCCSVDNCRLFIGGIPKMKKREEILEEIAKVTEGVLDVIVYASAADKMKNRGFAFVEYESHRAAAMARRKLMPGRIQLWGHQIAVDWAEPEIDVDEDVMETVKILYVRNLMIETTEDTIKKSFGQFNPGCVERVKKIRDYAFVHFTSREDAVHAMNNLNGTELEGSCLEVTLAKPVDKEQYSRYQKAARGGGAAEAAQQPSYVYSCDPYTLAYYGYPYNALIGPNRDYFVKAGSIRGRGRGAAGNRAPGPRGSYLGGYSAGRGIYSRYHEGKGKQQEKGYELVPNLEIPTVNPVAIKPGTVAIPAIGAQYSMFPAAPAPKMIEDGKIHTVEHMISPIAVQPDPASAAAAAAAAAAAAAAVIPTVSTPPPFQGRPITPVYTVAPNVQRIPTAGIYGASYVPFAAPATATIATLQKNAAAAAAMYGGYAGYIPQAFPAAAIQVPIPDVYQTY

Key:
Type in all cases: binding
[1] = system: SARS-CoV-2 gRNA; conditions: […]; LC-MS/MS; Probe I sample (first 199 lines of Table 2)
[2] = system: SARS-CoV-2 gRNA and sgRNAs; conditions: for target (unweighted spectral count in RNP capture): Probe II capture, LC-MS/MS LFQ; for background (unweighted spectral count in control): no-probe control pull-down, used as background for Probe II
[3] = system: gRNA of HCoV-OC43; conditions: for target (spectral count, OC43 Probe I RNP capture) / background (spectral count, no-probe control): type n_48_v: 48 hours post-infection; for target (spectral count, OC43 Probe I RNP capture): infected cells, unweighted spectral count; for background (spectral count, no-probe control): no-probe control on infected cells
[4] = system: HCoV-OC43 gRNA and sgRNA; conditions: for target (unweighted spectral count, OC43 Probe II capture): type n_36_v, FDR<10%; for target (unweighted spectral count, OC43 Probe II capture) / target (unweighted spectral count): tested against no-probe control; for target (unweighted spectral count, OC43 Probe II) / background (unweighted spectral count, no-probe control): type n_48_v, 48 hpi; for target (unweighted spectral count, OC43 Probe II): OC43 Probe II capture on infected cells; for background (unweighted spectral count, no-probe control): no-probe control on infected cells; for target (unweighted spectral count): OC43 Probe II, 12 hpi (type n_12_v), infected cells

| Molecule | target (unweighted spectral count of the protein in the RNP capture) [1] | target (unweighted spectral count in RNP capture) [2] | background (unweighted spectral count in control) [2] | target (spectral count, OC43 Probe I RNP capture) [3] | background (spectral count, no-probe control) [3] | target (unweighted spectral count, OC43 Probe II capture) ([4]; 36 hpi) | target (unweighted spectral count, OC43 Probe II) [4] | background (unweighted spectral count, no-probe control) [4] | target (unweighted spectral count) [4] | target (spectral count) ([3]; type g_36_m, HCoV-OC43-infected HCT-8 cells, 36 hpi, Probe I) | background (spectral count) ([3]; type g_36_m, uninfected-probe control, 36 hpi, Probe I) | target (spectral count) ([4]; type s_36_m, HCoV-OC43-infected HCT-8 cells, 36 hpi, Probe II) | background (spectral count) ([4]; type s_36_m, uninfected-probe control, 36 hpi, Probe II) |
| --- | --- | --- | --- | --- | --- | --- | --- | --- | --- | --- | --- | --- | --- |
| B1 | 12 | 9 | 1 | 12 | 2 | 12 | 13 | 2 |  |  |  |  |  |
| B2 | 78 | 61 | 1 | 49 | 6 | 36 | 53 | 6 | 15 |  |  |  |  |
| B3 | 12 |  | 1 | 26 | 2 | 31 | 27 | 2 | 10 | 28 | 5 | 31 | 6 |
